Where “and” joins values, the source holds several entries; their conditions need not be identical. Equal entries are not always repeated.
T1: recombinant Fel d1-His (Felis catus, UniProt P30438+P30440)
T1 construct: His; made in house
T1 sequence (P30438 23-92): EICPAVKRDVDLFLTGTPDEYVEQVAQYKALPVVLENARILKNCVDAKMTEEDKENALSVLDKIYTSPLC
T1 sequence (P30440 18-109): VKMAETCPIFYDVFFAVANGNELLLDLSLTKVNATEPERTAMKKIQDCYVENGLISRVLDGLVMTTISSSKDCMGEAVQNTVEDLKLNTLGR


Columns and labels:
Fel D1 = assay: ELISA binding assay of anti-Fel d1 VHH clones on Fel D1 epitopes; set-up: species or system cat; conditions: Epitope Recognized FAVANGNELLLDLS (SEQ ID NO: 59)
Procedure: 2 microgram per milliliter (μg/mL) target antigen is coated in a 96-well plate and ELISA assay is performed after incubation with candidate VHHs. The binding EC50 of each clone is calculated using Prism GraphPad. The positive control antibody is involved as an internal control.
Four distinct epitopes of Fel D1 were selected to be used for further identification. Peptides were synthesized for the four epitopes for VHH identification.
Isolated VHH clones were further validated by performing an ELISA assay as described in Example 1. Binding results are shown in FIG. 15B-15D for the epitope of SEQ ID NO: 61. Binding results are shown in FIG. 16 for the epitope of SEQ ID NO: 59. Binding results are shown in FIG. 17A-17E for the epitope of SEQ ID NO: 60. Binding results are shown in FIG. 18 for the epitope of SEQ ID NO: 58.

[1] = Thermostability (Tm, Tonset, Tagg) by Nanotemper DSF; type: physicochemical; set-up: key to Tm2 / Tagg / Tm1 / Tm / Tm3 / Tonset / Tonset ø (mean) / Tagg ø (mean): temperatures in °C
Outline: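 Isolated VHH clones were heated from 20 °C to 95 °C at 1 °C/min using DSF. Tm, Tonset and Tagg were derived from the thermal curves. Where several melting transitions occurred, each was reported in order (Tm1, Tm2, etc.).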

recombinant Fel d1-His = molecular target: T1, recombinant Fel d1-His; assay: Recombinant Fel D1 His binding assay with positive control antibodies; set-up: species or system cat
Procedure: In order to obtain single variable domain on heavy chain, i.e., VHH, specific for cat allergen Fel D1, a recombinant His-tagged Fel D1 was prepared, which reached high purity, as shown via SDS-Page Western blotting in FIG. 14. To confirm this, an ELISA was performed measuring optical density when the recombinant Fel d1-His is incubated with two known Fel D1 antibodies which are summarized in Table 18. As summarized in Table 19, the recombinant Fel d1-His was effectively bound by both antibodies.

[2] = Average of two replicates, anti-Fel d1 VHH
[3] = Average of two replicates, anti-Fel d1 VHH, in °C (unit assumed)
[4] = Replicate 1, in °C (unit assumed)
[5] = Replicate 2, in °C (unit assumed)

Row | Molecule | EC50 (Fel D1) [µg/mL] | Tagg ø (mean) [1, 2] | Tonset ø (mean) [1, 2] | Tm ø (mean), first melting point (Tm1) [1, 3] | Tm ø (mean), second melting point (Tm2) [1, 3] | Tagg ([1]; Replicate 1) | Tonset ([1]; Replicate 1) | Tm, first melting point (Tm1) [1, 4] | Tm, second melting point (Tm2) [1, 4] | Tagg ([1]; Replicate 2) | Tonset ([1]; Replicate 2) | Tm, first melting point (Tm1) [1, 5] | Tm, second melting point (Tm2) [1, 5] | Tagg ([1]; anti-Fel d1 VHH) | Tm ([1]; anti-Fel d1 VHH, single melting point, in °C (unit assumed)) | OD450 Using Positive Control (recombinant Fel d1-His; Volume of Fel D1-His 10 μL (concentration ~1 μg/μL)) | OD450 Using Positive Control (recombinant Fel d1-His; Volume of Fel D1-His 50 μL (concentration ~1 μg/μL)) | OD450 Using Positive Control (recombinant Fel d1-His; Volume of Fel D1-His 100 μL (concentration ~1 μg/μL))
1 | SDAB22110-3-1-D9-1: anti-Fel d1 VHH clone, SEQ ID NO: 52 (protein) VHH: AVQLVESGGGLVQPGGSLRLSCIISGFTSVSYSIVWFRQAPGKGREGVSCIGSSGGSTDYIDSVKGRFTISRDSAKNTVYLQMDCLKPEDTAVYYCAALRDVYRLCVIDYMNNDYWGQGTQVTVSS | 12.940 | 42.78 | 32.74 | 41.13 | 52.88 | 42.76 | 32.57 | 41.01 | 52.86 | 42.80 | 32.90 | 41.25 | 52.91 | 42.30 | 47.50 | – | – | –
2 | 18VH + 378VL: known Fel D1 positive control antibody, heavy chain SEQ ID NO: 66, light chain SEQ ID NO: 65 (antibody, V domains shown) VH: EVQLVESGGGLVKPGGSLRLSCAASGFTFRNYNINWVRQAPGKGLEWVSLISGSSSYIYYADSVKGRFTVSRDNAKNSLYLQMNSLRAEDTAVYYCARRTLSYYVMDVWGQGTTVTVSS VL: DIQLTQSPSFLSASVGDRVTITCWASQGISSYLAWYQQKPGKAPKLLIYSASTLQSGVPSRFSGSGSGTEFTLTISSLQPEDFATYYCQQLNSYPFTFGPGTKVDIK | – | – | – | – | – | – | – | – | – | – | – | – | – | – | – | 4.47 and 4.44 | 4.55 and 4.53 | 4.60

— patent US20240352105A1, “COMPOSITIONS AND METHODS FOR NEUTRALIZING ANTIGENS” (PACAGEN, INC, priority 2023, published 2024)
